Test results reported in patent US20220296727A1, “Immunoconjugate” (DendroCyte BioTech Pty Ltd, priority 2019, published 2022).

Columns and labels:
HL-60 = settings: comparator agents; cited from earlier work
U937 = settings: comparator agents; cited from earlier work
THP-1 = settings: comparator agents; cited from earlier work
human CD300f = human CD300f (human, UniProt Q8TDQ1 20-290); experiment: cell-based or functional assay
HL-60 cells = experiment: Internalisation assay by flow cytometry; type: cell-based
Method: DCR-2 (IgG1), and as an isotype control, the anti-tetanus toxoid mAb, CMRF-81 (IgG1) which were both produced, purified and directly conjugated to phycoerythrin (PE) in house (Abadir et al. Mol Oncol. 2019; 13(10):2107-2120). Cells were incubated with DCR-2-PE or CMRF-81-PE (10 μg/ml) on ice for 20 min, washed to remove unbound mAb then incubated at 37° C./5% CO2 to allow internalisation for the indicated times.
After incubation, residual mAb remaining on the cell surface was detected with a secondary goat anti-mouse (GAM) IgG-AF488 antibody. Cells were fixed in 1% paraformaldehyde/PBS for flow cytometry analysis. The surface and total relative Mean Fluorescent Index (MFI) was calculated as the (MFI of binding antibody at time point−MFI of isotype control at time point) at 37° C./(MFI of binding antibody at time point−MFI of isotype control at time point) at 0° C. The percent internalised was assessed by 100−(relative MFI surface staining/relative MFI total staining). In immunofluorescent microscopy experiments cells were stained with DCR-2 then air-dried and fixed with 4% paraformaldehyde or incubated for 37° C. for 30 minutes then fixed. Rehydration was performed using 1% BSA/PBS prior to staining with GAM IgG-AF488 antibody and 18 μM DAPI (ThermoFisher).

dendritic cells = experiment: Activation marker expression on dendritic cells after LPS; type: cell-based, human; settings: HLA-DR, CD11c, CD80, CD83; 200 pmol
Method: The activity of DCR-2PBD on the upregulation of activation markers on DC was measured by incubating whole PBMC with DCR-2PBD or no antibody for […] before washing, followed by 12 hours of LPS stimulation. Control DC were not exposed to DCR-2PBD or LPS. Myeloid DC were gated out by excluding dead cells, Lin^+(CD3, CD20, CD19, CD56, CD14), then gating on HLA-DR^+ and CD11c^+ cells. The activation markers CD80 and CD83 were assessed via flow cytometry. The changes on activation were determined by comparing activated DC incubated with or without DCR-2PBD compared to inactivated DC.
PBMC were incubated in complete RPMI media with or without DCR-2-PBD (200 pmol). After 12 hours, washed cells were incubated for a further 12 hours with or without LPS then phenotyped for the expression of activation markers on DC populations. MoDC were derived from CD14+ monocytes as described previously (Fromm et al. J Leukoc Biol. 2020; 107(2):323-339). DCR-2-PBD or isotype-PBD (200 pmol) were added for 72 hours prior to enumeration of live cells by flow cytometry.

AML = experiment: NOS/SCID mouse model of AML; type: in vivo; settings: unconjugated antibody alone

human CD300f, sequence (Q8TDQ1 20-290): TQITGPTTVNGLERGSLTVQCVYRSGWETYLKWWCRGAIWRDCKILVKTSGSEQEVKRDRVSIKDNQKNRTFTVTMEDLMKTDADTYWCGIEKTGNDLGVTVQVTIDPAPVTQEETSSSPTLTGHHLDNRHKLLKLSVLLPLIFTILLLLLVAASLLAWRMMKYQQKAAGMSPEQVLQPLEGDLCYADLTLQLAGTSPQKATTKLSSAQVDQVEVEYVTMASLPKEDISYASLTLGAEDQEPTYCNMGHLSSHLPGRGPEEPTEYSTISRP

Molecule: CS(=O)(=O)OCCCCOS(C)(=O)=O [Busulfan]
- IC50 (HL-60): 354000 nM

Molecule: COc1cccc2c1C(=O)c1c(O)c3c(c(O)c1C2=O)C[C@@](O)(C(=O)CO)C[C@@H]3O[C@H]1C[C@H](N)[C@H](O)[C@H](C)O1 [Doxorubicin]
- IC50 (HL-60): 345000 nM

Molecule: Gemtuzumab-Ozogamicin: approved AML therapeutic which targets CD33
- IC50 (HL-60): 0.0133 nM
- IC50 (U937): 0.127 nM
- IC50 (THP-1): 0.04 nM

B1: DCR-2-pyrrolobenzodiazepine (PBD) immunoconjugate (antibody, V domains shown)
VH: MESGGGLVQPGGPLKLSCAASGFGFSGSWMSWVRQAPGKGLEWIGQINPDSSTINYTPSLKDKFIISRDNAKNTLYLQINKVRSEDTALYYCARRGFFEGYSAWFAYW
VL: ILMTQTPKFLLVSAGDRVTITCKASQSVSNDVAWYQQKPGQSPSLLIYYASNRNTGVPDRFTGSGYETDFTFTISTVQAEDLAVYFCQQDYTSPWTFGGG
modifications: PBD dimer linked through the Cathepsin B-cleavable linker MA-PEG4-VA-PBD to native cysteines (reduced interchain disulfides); drug to antibody molar ratio 3.3; positions not given
- IC50 (pM), cytotoxicity on HL-60 cells (human CD300f): 5.45 pM
- IC50 (pM), cytotoxicity on THP-1 cells (human CD300f): 29.9 pM
- IC50 (pM), cytotoxicity on U937 cells (human CD300f): 6.74 pM

B2: DCR-2: murine IgG1 kappa monoclonal antibody binding the extracellular domain of CD300f; hybridoma CBA20160029 (antibody, V domains shown)
VH: MESGGGLVQPGGPLKLSCAASGFGFSGSWMSWVRQAPGKGLEWIGQINPDSSTINYTPSLKDKFIISRDNAKNTLYLQINKVRSEDTALYYCARRGFFEGYSAWFAYW
VL: ILMTQTPKFLLVSAGDRVTITCKASQSVSNDVAWYQQKPGQSPSLLIYYASNRNTGVPDRFTGSGYETDFTFTISTVQAEDLAVYFCQQDYTSPWTFGGG
- Internalisation (HL-60 cells; 30 minutes): significant
- Internalisation (HL-60 cells; 180 minutes): greater than 50%
- up-regulation of activation markers on dendritic cells after LPS (dendritic cells): does not prevent upregulation of activation markers CD80 and CD83
- survival and disease burden (AML): does not prolong survival or reduce disease burden
